According to the supplement of paper PMC9112550, “Optimization of the antimicrobial peptide Bac7 by deep mutational scanning” (BMC Biology, 2022):

Tested on: Escherichia coli TOP10
Experiment: shrunken log2 fold change of peptide-encoding DNA abundance (4.5 h post-induction vs induction); higher = less antimicrobial activity (less host growth inhibition)
Conditions: time post-induction: 4.5 h; library: site-saturation at positions 5, 18, 19, 20
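Further: peptides expressed intracellularly from a pBAD plasmid library in pooled LB shake-flask culture, induced with 0.3% L-arabinose, DNA abundance read by NGS, three biological replicates, DESeq2 with apeglm shrinkage.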

Sequence	shrunken log2 fold change
RRIRLRPPRLPRPRPRPHWWPRP	0.148
RRIRIRPPRLPRPRPRPVWVPRP	0.107
RRIRVRPPRLPRPRPRPAMVPRP	0.118
RRIRKRPPRLPRPRPRPRTHPRP	0.425
RRIRHRPPRLPRPRPRPMAGPRP	-0.0581
RRIRHRPPRLPRPRPRPHGRPRP	-0.219
RRIRIRPPRLPRPRPRPWTLPRP	-0.0808
RRIRQRPPRLPRPRPRPYWYPRP	-0.0759
RRIRLRPPRLPRPRPRPWDSPRP	-0.145
RRIRTRPPRLPRPRPRPLLFPRP	-0.181
RRIRTRPPRLPRPRPRPEPQPRP	0.927
RRIRFRPPRLPRPRPRPLHLPRP	-0.166
RRIRERPPRLPRPRPRPPFKPRP	-0.0871
RRIRRRPPRLPRPRPRPQMCPRP	0.0865
RRIRCRPPRLPRPRPRPPASPRP	0.723
RRIRCRPPRLPRPRPRPPRNPRP	1.05
RRIRGRPPRLPRPRPRPYQDPRP	0.0178
RRIRGRPPRLPRPRPRPSHEPRP	-0.418
RRIRERPPRLPRPRPRPIPHPRP	-0.19
RRIRVRPPRLPRPRPRPSHAPRP	-0.24
RRIRRRPPRLPRPRPRPGDWPRP	0.465
RRIRDRPPRLPRPRPRPQHEPRP	-0.00197
RRIRTRPPRLPRPRPRPNKDPRP	-0.54

Sequence	shrunken log2 fold change
RRIRCRPPRLPRPRPRPLNIPRP	-0.379
RRIRQRPPRLPRPRPRPHWQPRP	-0.147
RRIRQRPPRLPRPRPRPNENPRP	-0.0578
RRIRMRPPRLPRPRPRPSKDPRP	0.37
RRIRDRPPRLPRPRPRPNMYPRP	-0.229
RRIRFRPPRLPRPRPRPQTNPRP	-0.619
RRIRGRPPRLPRPRPRPWEHPRP	-0.000921
RRIRNRPPRLPRPRPRPDEIPRP	-0.043
RRIRQRPPRLPRPRPRPINPPRP	-0.357
RRIRNRPPRLPRPRPRPMGGPRP	0.0264
RRIRIRPPRLPRPRPRPSNAPRP	-0.0615
RRIRMRPPRLPRPRPRPVDVPRP	-0.163
RRIRPRPPRLPRPRPRPRCVPRP	0.0965
RRIRDRPPRLPRPRPRPIVEPRP	0.0518
RRIRPRPPRLPRPRPRPSVTPRP	-0.385
RRIRPRPPRLPRPRPRPPKNPRP	0.26
RRIRSRPPRLPRPRPRPFGRPRP	-0.0701
RRIRCRPPRLPRPRPRPPGIPRP	3.39
RRIRSRPPRLPRPRPRPYHQPRP	-0.203
RRIRVRPPRLPRPRPRPAGPPRP	0.264
RRIRKRPPRLPRPRPRPGSEPRP	0.66
RRIRNRPPRLPRPRPRPMRMPRP	-0.00372
RRIRLRPPRLPRPRPRPPKCPRP	0.213

Sequence	shrunken log2 fold change
RRIRTRPPRLPRPRPRPPQNPRP	0.329
RRIRERPPRLPRPRPRPAFYPRP	-0.32
RRIRNRPPRLPRPRPRPYFKPRP	-0.363
RRIRFRPPRLPRPRPRPMQFPRP	-0.0783
RRIRMRPPRLPRPRPRPDCEPRP	2.29
RRIRIRPPRLPRPRPRPPVEPRP	-0.0536
RRIRPRPPRLPRPRPRPPQSPRP	0.621
RRIRMRPPRLPRPRPRPCAKPRP	0.207
RRIRIRPPRLPRPRPRPQESPRP	-0.617
RRIRNRPPRLPRPRPRPCCEPRP	0.0852
RRIRARPPRLPRPRPRPSGQPRP	0.251
RRIRVRPPRLPRPRPRPPTYPRP	-0.432
RRIRGRPPRLPRPRPRPSRGPRP	0.605
RRIRARPPRLPRPRPRPKAMPRP	0.00028
RRIRMRPPRLPRPRPRPLMEPRP	1.68
RRIRGRPPRLPRPRPRPYGQPRP	0.0682
RRIRVRPPRLPRPRPRPKNSPRP	-0.34
RRIRWRPPRLPRPRPRPISDPRP	-0.154
RRIRNRPPRLPRPRPRPQDHPRP	-0.33
RRIRLRPPRLPRPRPRPMSKPRP	0.0198
RRIRCRPPRLPRPRPRPIKCPRP	-0.165
RRIRGRPPRLPRPRPRPWYTPRP	-0.225
RRIRYRPPRLPRPRPRPQDSPRP	-0.0125

Sequence	shrunken log2 fold change
RRIRPRPPRLPRPRPRPNQDPRP	-0.167
RRIRMRPPRLPRPRPRPSMPPRP	-0.201
RRIRHRPPRLPRPRPRPVNIPRP	-0.459
RRIRDRPPRLPRPRPRPVRLPRP	0.28
RRIRFRPPRLPRPRPRPFGSPRP	-0.00247
RRIRFRPPRLPRPRPRPFKLPRP	-0.0106
RRIRERPPRLPRPRPRPSNNPRP	-0.973
RRIRCRPPRLPRPRPRPVHCPRP	0.0148
RRIRIRPPRLPRPRPRPHSCPRP	-0.0433
RRIRPRPPRLPRPRPRPWSKPRP	0.00178
RRIRERPPRLPRPRPRPGDQPRP	-0.0675
RRIRVRPPRLPRPRPRPRVDPRP	0.455
RRIRARPPRLPRPRPRPFCVPRP	0.19
RRIRNRPPRLPRPRPRPFPIPRP	-0.132
RRIRYRPPRLPRPRPRPGCGPRP	-0.0402
RRIRERPPRLPRPRPRPYMTPRP	-0.124
RRIRNRPPRLPRPRPRPKSAPRP	0.265
RRIRPRPPRLPRPRPRPLEDPRP	0.492
RRIRARPPRLPRPRPRPKCIPRP	0.0328
RRIRLRPPRLPRPRPRPLRGPRP	1.11
RRIRERPPRLPRPRPRPTNDPRP	0.127
RRIRLRPPRLPRPRPRPAHGPRP	-0.0453
